From paper PMC10979003 (Nature Communications, 2024)
No end group written: not given here. *: point of attachment. Biotin = O=C1N[C@H]2[C@H](CS[C@H]2CCCCC(=O)*)N1

Target: T1, 6xHis tagged BCL-xL (UniProt Q07817-1 2-212)
T1 construct: BCL-xL; The cloning section gives BCL-xL only an N-terminal ULP1-cleavable SMT3 tag; also called self-made 6×His tagged BCL-xL; WT BCL-xL; source: self-made; E. coli BL21 (DE3) codon plus
Experiment: AlphaScreen or HTRF; AlphaScreen displacement binding assay: Biotin-Bim or Biotin-Bad (15 nM for WT, 50 nM for mutants), 6xHis BCL-2 (25 nM WT, 50 nM mutants) or BCL-xL (10 nM WT, 50 nM mutants), compounds (753b, WH244) as displacers; anti-6xHis acceptor and streptavidin donor beads; 25 mM HEPES pH 7.5, 150 mM NaCl, 0.1% BSA, 0.005% tween 20; room temperature
Settings: both partners purified

T1 sequence (Q07817 2-212): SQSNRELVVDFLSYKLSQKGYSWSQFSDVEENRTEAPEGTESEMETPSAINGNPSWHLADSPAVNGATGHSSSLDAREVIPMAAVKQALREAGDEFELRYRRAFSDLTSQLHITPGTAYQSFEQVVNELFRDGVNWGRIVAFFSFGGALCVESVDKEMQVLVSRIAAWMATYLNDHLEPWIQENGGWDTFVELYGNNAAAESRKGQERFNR

binding result: binds
B1: Biotin-tagged Bad (peptide)
peptide: Biotin-LWAAQRYGRELRRMSDEFEGSFKGL
notes: Bad peptide (BH3 stretch); also called Biotin-[residues removed]
